How the values were obtained:
[1] = molecular target: T1, biotinylated goat anti-human kappa light chain; assay: ELISA, positive control
T1 construct: positive control of the ELISA
Experimental: The binding of ACVR2A-specific monoclonal antibodies to human ACVR2A, mouse ACVR2A, biotinylated goat anti-human kappa light chain (positive control) and human Fc (negative control) were determined by ELISA.

[2] = molecular target: T2, human ACVR2A (human, UniProt P27037 20-135, limits assumed); assay: ELISA
T2 construct: coated antigen of the initial ELISA; also called activin receptor, type II A
Method in brief: (§1)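 ELISA measured binding of ACVR2A-specific monoclonal antibodies to human and mouse ACVR2A. Biotinylated goat anti-human kappa light chain served as positive control and human Fc as negative control.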
T2 sequence (P27037 20-135 limits assumed): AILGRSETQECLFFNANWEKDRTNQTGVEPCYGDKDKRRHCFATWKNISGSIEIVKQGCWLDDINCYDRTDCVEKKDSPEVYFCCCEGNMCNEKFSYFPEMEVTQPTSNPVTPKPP

[3] = molecular target: T3, mouse ACVR2A (mouse, UniProt P27038 20-135, limits assumed); assay: ELISA
T3 construct: coated antigen of the initial ELISA
Method in brief: as §1
T3 sequence (P27038 20-135 limits assumed): as the sequence (P27037 20-135 limits assumed) above, with K20R, V73I counted along it

[4] = molecular target: T4, biotinylated goat anti-human kappa light chain; assay: ELISA; positive control
T4 construct: Positive control of the ELISA
Method in brief: as §1

[5] = molecular target: human ACVR2A (human, UniProt P27037 20-135, limits assumed); assay: ELISA
Method in brief: as §1
Target sequence in this assay (P27037 20-135 limits assumed): as the sequence (P27037 20-135 limits assumed) above

[6] = molecular target: mouse ACVR2A (mouse, UniProt P27038 20-135, limits assumed); assay: ELISA
Method in brief: as §1
Target sequence in this assay (P27038 20-135 limits assumed): as the sequence (P27037 20-135 limits assumed) above, with K20R, V73I counted along it
Further: test concentration or dose not given here.

Row | Binder | optical density [1] [OD] | optical density [2] [OD] | optical density [3] [OD] | optical density [4] [OD] | optical density [5] [OD] | optical density [6] [OD]
1 | 375_E10 (antibody, V domains shown, Group III) VH: EVQLLESGGGLVQPGGSLRLSCAASGFTFSSYSMNWVRQAPGKGLEWVSGINYNGGYTSYADSVKGRFTISRDNSKNTLYLQMNSLRAEDTAVYYCARGANWHDTALDYWGQGTLVTVSS VL: DIQMTQSPSSLSASVGDRVTITCRASQSILSYLNWYQQKPGKAPKLVIYAATSRASGVPSRFSGSGSGTDFTLTISSLQPEDFATYYCQQSYDNPLTFGGGTKVEIK | 3.29 | 3.69 | 3.79 |  |  | 
2 | 367_B12 (antibody, V domains shown, Group III) VH: EVQLLESGGGLVQPGGSLRLSCAASGFTFSSYGMHWVRQAPGKGLEWVASINYNGGYKSYADSVKGRFTISRDNSKNTLYLQMNSLRAEDTAVYYCARGANWHDTHLDYWGQGTLVTVSS VL: DIQMTQSPSSLSASVGDRVTITCRASQSILSYVNWYQQKPGKAPKLVIYAATSLASGVPSRFSGSGSGTDFTLTISSLQPEDFATYYCQQSYDTPLTFGGGTKVEIK | 3.75 | 3.02 | 3.03 |  |  | 
3 | 367_D03 (antibody, V domains shown, Group III) VH: EVQLLESGGGLVQPGGSLRLSCAASGFTFDSYSMNWVRQAPGKGLEWVSSINYNGGYTGYADSVKGRFTISRDNSKNTLYLQMNSLRAEDTAVYYCARGANWHDTHLDYWGQGTLVTVSS VL: DIQMTQSPSSLSASVGDRVTITCRASQSIITYLNWYQQKPGKAPKLLIYAATSRASGVPSRFSGSGSGTDFTLTISSLQPEDFATYYCQQSYDTPLTFGGGTKVEIK | 3.46 | 2.59 | 2.45 |  |  | 
4 | 367_D12 (antibody, V domains shown, Group III) VH: EVQLLESGGGLVQPGGSLRLSCAASGFTFSSYSMNWVRQAPGKGLEWVSSINYNGGYTGYADSVKGRFTISRDNSKNTLYLQMNSLRAEDTAVYYCARGANWHDTHLDYWGQGTLVTVSS VL: DIQMTQSPSSLSASVGDRVTITCRASQSIVSYVNWYQQKPGKAPKLVIYAATSRASGVPSRFSGSGSGTDFTLTISSLQPEDFATYYCQQSYESPLTFGGGTKVEIK | 3.57 | 2.44 | 2.69 |  |  | 
5 | 376_H10 (antibody, V domains shown, VH/VL only) VH: EVQLLESGGGLVQPGGSLRLSCAASGFTFDSYSMNWVRQAPGKGLEWVSGINYNSGYKSYADSVKGRFTISRDNSKNTLYLQMNSLRAEDTAVYYCARSANWHDTALDYWGQGTLVTVSS VL: DIQMTQSPSSLSASVGDRVTITCRASQSILTYLNWYQQKPGKAPKLVIYAATSRHSGVPSRFSGSGSGTDFTLTISSLQPEDFATYYCQQSYDSPLTFGGGTKVEIK |  |  |  | 3.54 | 3.28 | 3.29
6 | 367_A10 (antibody, V domains shown, Group III) VH: EVQLLESGGGLVQPGGSLRLSCAASGFTFSSYGMNWVRQAPGKGLEWVAGINYNSGYTSYADSVKGRFTISRDNSKNTLYLQMNSLRAEDTAVYYCARGANWHDTHLDYWGQGTLVTVSS VL: DIQMTQSPSSLSASVGDRVTITCRASQSIITYVNWYQQKPGKAPKLLIYAATSLASGVPSRFSGSGSGTDFTLTISSLQPEDFATYYCQQSYDLPLTFGGGTKVEIK | 3.39 | 1.89 | 2.16 |  |  | 
7 | 367_B01 (antibody, V domains shown, Group III) VH: EVQLLESGGGLVQPGGSLRLSCAASGFTFSSYSMNWVRQAPGKGLEWVAGINYNGGYKGYADSVKGRFTISRDNSKNTLYLQMNSLRAEDTAVYYCARGANWHDTALDYWGQGTLVTVSS VL: DIQMTQSPSSLSASVGDRVTITCRASQSISSYVNWYQQKPGKAPKLVIYAATSRASGVPSRFSGSGSGTDFTLTISSLQPEDFATYYCQQSYSTPLTFGGGTKVEIK | 3.67 | 2.84 | 2.91 |  |  | 
8 | 367_F01 (antibody, V domains shown, Group III) VH: EVQLLESGGGLVQPGGSLRLSCAASGFTFDSYSMNWVRQAPGKGLEWVSNINYNGGYKSYADSVKGRFTISRDNSKNTLYLQMNSLRAEDTAVYYCARGANWHDTHLDYWGQGTLVTVSS VL: not shown | 3.72 | 2.42 | 2.76 |  |  | 

Continued, values first:

Row | optical density [1] [OD] | optical density [2] [OD] | optical density [3] [OD] | optical density [4] [OD] | optical density [5] [OD] | optical density [6] [OD] | Binder
9 |  |  |  | 3.42 | 3.07 | 3.29 | 376_F04 (antibody, V domains shown, VH/VL only) VH: EVQLLESGGGLVQPGGSLRLSCAASGFTFDSYSMNWVRQAPGKGLEWVSNINYNSGYTGYADSVKGRFTISRDNSKNTLYLQMNSLRAEDTAVYYCARSANWHDTALDYWGQGTLVTVSS VL: not shown
10 |  |  |  | 3.17 | 3.69 | 3.7 | 375_D04 (antibody, V domains shown, VH/VL only) VH: EVQLLESGGGLVQPGGSLRLSCAASGFTFDDSSMHWVRQAPGKGLEWVSNINYNGGYTGYADSVKGRFTISRDNSKNTLYLQMNSLRAEDTAVYYCAKSANWHDTALDYWGQGTLVTVSS VL: DIQMTQSPSSLSASVGDRVTITCRASQSILSYVNWYQQKPGKAPKLVIYAATSRASGVPSRFSGSGSGTDFTLTISSLQPEDFATYYCQQSYELPLTFGGGTKVEIK
11 |  |  |  | 3.16 | 3.56 | 3.59 | 374_F02 (antibody, V domains shown, VH/VL only) VH: EVQLLESGGGLVQPGGSLRLSCAASGFTFDSYSMNWVRQAPGKGLEWVANINYNSGYTSYADSVKGRFTISRDNSKNTLYLQMNSLRAEDTAVYYCARSANWHDTALDYWGQGTLVTVSS VL: DIQMTQSPSSLSASVGDRVTITCRASQSIVSYLNWYQQKPGKAPKLLIYAASSLQSGVPSRFSGSGSGTDFTLTISSLQPEDFATYYCQQSYELPLTFGGGTKVEIK
12 | 3.34 | 2.66 | 3.1 |  |  |  | 367_B04 (antibody, V domains shown, Group III) VH: EVQLLESGGGLVQPGGSLRLSCAASGFTFDSYSMNWVRQAPGKGLEWVSGINYNSGYKSYADSVKGRFTISRDNSKNTLYLQMNSLRAEDTAVYYCARGANWHDTHLDYWGQGTLVTVSS VL: DIQMTQSPSSLSASVGDRVTITCRASQSILSYLNWYQQKPGKAPKLLIYAATSRASGVPSRFSGSGSGTDFTLTISSLQPEDFATYYCQQSYELPLTFGGGTKVEIK
13 | 3.47 | 2.35 | 2.64 |  |  |  | 367_E05 (antibody, V domains shown, Group III) VH: EVQLLESGGGLVQPGGSLRLSCAASGFTFSSYGMNWVRQAPGKGLEWVAGINYNGGYTSYADSVKGRFTISRDNSKNTLYLQMNSLRAEDTAVYYCARGANWHDTHLDYWGQGTLVTVSS VL: DIQMTQSPSSLSASVGDRVTITCRASQSILSYLNWYQQKPGKAPKLLIYAATSRHSGVPSRFSGSGSGTDFTLTISSLQPEDFATYYCQQSYDSPLTFGGGTKVEIK
14 | 3.25 | 2.04 | 2.35 |  |  |  | 367_D06 (antibody, V domains shown, Group III) VH: EVQLLESGGGLVQPGGSLRLSCAASGFTFDSYSMNWVRQAPGKGLEWVAGINYNGGYTSYADSVKGRFTISRDNSKNTLYLQMNSLRAEDTAVYYCARGANWHDTHLDYWGQGTLVTVSS VL: DIQMTQSPSSLSASVGDRVTITCRASQSISTYLNWYQQKPGKAPKLVIYAATSLASGVPSRFSGSGSGTDFTLTISSLQPEDFATYYCQQSYNSPLTFGGGTKVEIK
15 | 3.65 | 2.44 | 2.42 |  |  |  | 367_A12 (antibody, V domains shown, Group III) VH: EVQLLESGGGLVQPGGSLRLSCAASGFTFSSYGMNWVRQAPGKGLEWVSGINYNSGYTSYADSVKGRFTISRDNSKNTLYLQMNSLRAEDTAVYYCARGANWHDTHLDYWGQGTLVTVSS VL: DIQMTQSPSSLSASVGDRVTITCRASQSILSYLNWYQQKPGKAPKLLIYAATSLHSGVPSRFSGSGSGTDFTLTISSLQPEDFATYYCQQSYNNPLTFGGGTKVEIK
16 |  |  |  | 3.46 | 3.32 | 3.3 | 376_H09 (antibody, V domains shown, VH/VL only) VH: EVQLLESGGGLVQPGGSLRLSCAASGFTFSDYSMNWVRQAPGKGLEWVANINYNGGYTGYADSVKGRFTISRDNSKNTLYLQMNSLRAEDTAVYYCARSANWHDTALDYWGQGTLVTVSS VL: DIQMTQSPSSLSASVGDRVTITCRASQSIITYLNWYQQKPGKAPKLVIYYVSNLPSGVPSRFSGSGSGTDFTLTISSLQPEDFATYYCQQSYDSPLTFGGGTKVEIK
17 | 3.41 | 2.47 | 2.52 |  |  |  | 367_C07 (antibody, V domains shown, Group III) VH: EVQLLESGGGLVQPGGSLRLSCAASGFTFSSYSMNWVRQAPGKGLEWVSSINYNSGYTGYADSVKGRFTISRDNSKNTLYLQMNSLRAEDTAVYYCARGANWHDTHLDYWGQGTLVTVSS VL: DIQMTQSPSSLSASVGDRVTITCRASQSILTYVNWYQQKPGKAPKLLIYAATSRASGVPSRFSGSGSGTDFTLTISSLQPEDFATYYCQQSYNLPLTFGGGTKVEIK
18 | 3.5 | 2.18 | 2.37 |  |  |  | 367_D08 (antibody, V domains shown, Group III) VH: EVQLLESGGGLVQPGGSLRLSCAASGFTFSDYSMNWVRQAPGKGLEWVAGINYNGGYTSYADSVKGRFTISRDNSKNTLYLQMNSLRAEDTAVYYCARGANWHDTHLDYWGQGTLVTVSS VL: DIQMTQSPSSLSASVGDRVTITCRASQSILSYLNWYQQKPGKAPKLVIYAATSRHSGVPSRFSGSGSGTDFTLTISSLQPEDFATYYCQQSDDLPLTFGGGTKVEIK
19 | 3.39 | 2.53 | 2.61 |  |  |  | 367_C10 (antibody, V domains shown, Group III) VH: EVQLLESGGGLVQPGGSLRLSCAASGFTFDSYSMNWVRQAPGKGLEWVSGINYNGGYTSYADSVKGRFTISRDNSKNTLYLQMNSLRAEDTAVYYCARGANWHDTALDYWGQGTLVTVSS VL: DIQMTQSPSSLSASVGDRVTITCRASQSIVSYVNWYQQKPGKAPKLLIYAVTSRASGVPSRFSGSGSGTDFTLTISSLQPEDFATYYCQQSYETPLTFGGGTKVEIK
